In paper PMC5914118, “Exploiting the Concept of Multivalency with ^68Ga- and ^89Zr-Labelled Fusarinine C-Minigastrin Bioconjugates for Targeting CCK2R Expression” (Contrast Media & Molecular Imaging, 2018):
Like-named read-outs stand apart in the source and are kept apart here. Marks after values point to notes of the source that are not given here.

Experiments:
[1] = format: physicochemical
Method: Aliquots (50 μL) of ^68Ga- and ^89Zr-labelled mono-, di-, and trimer (10 μM) were diluted in 450 μL PBS. After adding 500 μL octanol the mixture was vortexed with 1400 rpm (MS 3 basic vortexer, IKA, Staufen, Germany) for 15 min at RT followed by centrifugation for 2 min at 4500 rpm. Subsequently, 100 μL aliquots of the organic and the aqueous layer were collected and logD values were calculated using Excel (n = 3, six replicates) after gamma counter measurement.

[2] = tested on: A431-CCK2R/A431-mock tumour xenografted BALB/c nude mice; settings: mouse, in vivo
Method: All animal experiments were conducted in compliance with the Austrian and Dutch animal protection laws and with approval of the Austrian Ministry of Science (BMWF-66.011/000604-II/3b/2012 and BMWFW-66.011/0049-WF/II/3b/2014). In vivo stability studies were conducted in 5-week-old female BALB/c mice (in-house breed, ZVTA Innsbruck, Dr. Hermann Dietrich). The biodistribution studies were performed using female 8−10-week-old athymic BALB/c nude mice (Charles River Laboratories, Sulzfeld, Germany). Tumour xenografts were induced by subcutaneous injection of 2 × 10^6 A431-CCK2R cells (receptor positive) in the right and the same amount of A431-mock (receptor negative) in the left flank. Tumours were allowed to grow until they had reached a volume of 0.3–0.6 cm^3. To evaluate the biodistribution profile nude mice (n = 4) were intravenously injected with either 1-2 MBq ^68Ga- or 0.3 MBq ^89Zr-labelled mono-, di-, and trimer (0.1–0.2 nmol). The animals were sacrificed by cervical dislocation after 1 h as well as 2 h and 4 h in case of ^68Ga- and ^89Zr-labelled trimer, followed by the collection of organs and tissue. The collected samples were measured in the gamma counter and the results were calculated as percentage of injected dose per gram tissue (% ID/g).

SMILES: CSCC[C@H](NC(=O)[C@H](Cc1c[nH]c2ccccc12)NC(=O)CNC(=O)[C@H](Cc1ccc(O)cc1)NC(=O)[C@H](C)NC(=O)[C@@H](CCC(=O)O)NC(=O)CCSC1CC(=O)N(CCC(=O)NC2CCCN(O)C(=O)C=C(C)CCOC(=O)C(NC(=O)CCN3C(=O)CC(SCCC(=O)N[C@H](CCC(=O)O)C(=O)N[C@@H](C)C(=O)N[C@@H](Cc4ccc(O)cc4)C(=O)NCC(=O)N[C@@H](Cc4c[nH]c5ccccc45)C(=O)N[C@@H](CCSC)C(=O)N[C@@H](CC(=O)O)C(=O)N[C@@H](Cc4ccccc4)C(N)=O)C3=O)CCCN(O)C(=O)C=C(C)CCOC(=O)C(NC(C)=O)CCCN(O)C(=O)C=C(C)CCOC2=O)C1=O)C(=O)N[C@@H](CC(=O)O)C(=O)N[C@@H](Cc1ccccc1)C(N)=O (some centres unmarked) [^68Ga-labelled Dimer, metal not drawn]
- Distribution coefficient logD (pH 7.4) [1]: −2.38 ± 0.04
- Tumour-to-organ ratio (T/O): A431-mock [2]: 17.9 ± 6.1^c
- Tumour-to-organ ratio (T/O): Blood [2]: 16.0 ± 3.1^cd
- Tumour-to-organ ratio (T/O): Bone [2]: 11.6 ± 1.9^c
- Tumour-to-organ ratio (T/O): Heart [2]: 27.2 ± 4.8^cd
- Tumour-to-organ ratio (T/O): Intestine [2]: 19.9 ± 4.9^acd
- Tumour-to-organ ratio (T/O): Kidneys [2]: 0.30 ± 0.06^cd
- Tumour-to-organ ratio (T/O): Liver [2]: 11.1 ± 2.4^c
- Tumour-to-organ ratio (T/O): Lung [2]: 14.4 ± 2.3^cd
- Tumour-to-organ ratio (T/O): Muscle [2]: 31.4 ± 13.2^cd
- Tumour-to-organ ratio (T/O): Pancreas [2]: 17.9 ± 3.2^cd
- Tumour-to-organ ratio (T/O): Spleen [2]: 23.1 ± 4.2^cd
- Tumour-to-organ ratio (T/O): Stomach [2]: 4.0 ± 0.5^c
- Biodistribution: A431-CCK2R tumour (receptor positive) ([2]; 1 h): 8.36 ± 0.90^ac % ID/g
- Biodistribution: A431-mock tumour (receptor negative) ([2]; 1 h): 0.36 ± 0.22^cd % ID/g
- Biodistribution: Blood ([2]; 1 h): 0.53 ± 0.06^cd % ID/g
- Biodistribution: Bone ([2]; 1 h): 0.60 ± 0.21^cd % ID/g
- Biodistribution: Heart ([2]; 1 h): 0.31 ± 0.04^cd % ID/g
- Biodistribution: Intestine ([2]; 1 h): 0.44 ± 0.06^c % ID/g
- Biodistribution: Kidneys ([2]; 1 h): 28.9 ± 3.4^cd % ID/g
- Biodistribution: Liver ([2]; 1 h): 0.78 ± 0.09^c % ID/g
- Biodistribution: Lung ([2]; 1 h): 0.59 ± 0.08^cd % ID/g
- Biodistribution: Muscle ([2]; 1 h): 0.30 ± 0.08^cd % ID/g
- Biodistribution: Pancreas ([2]; 1 h): 0.48 ± 0.06^cd % ID/g
- Biodistribution: Spleen ([2]; 1 h): 0.37 ± 0.04^cd % ID/g
- Biodistribution: Stomach ([2]; 1 h): 2.13 ± 0.23^c % ID/g

SMILES: CSCC[C@H](NC(=O)[C@H](Cc1c[nH]c2ccccc12)NC(=O)CNC(=O)[C@H](Cc1ccc(O)cc1)NC(=O)[C@H](C)NC(=O)[C@@H](CCC(=O)O)NC(=O)CCSC1CC(=O)N(CCC(=O)NC2CCCN(O)C(=O)C=C(C)CCOC(=O)C(NC(C)=O)CCCN(O)C(=O)C=C(C)CCOC(=O)C(NC(C)=O)CCCN(O)C(=O)C=C(C)CCOC2=O)C1=O)C(=O)N[C@@H](CC(=O)O)C(=O)N[C@@H](Cc1ccccc1)C(N)=O (some centres unmarked) [^68Ga-labelled Monomer, metal not drawn]
- Distribution coefficient logD (pH 7.4) [1]: −2.99 ± 0.02
- Tumour-to-organ ratio (T/O): A431-mock [2]: 16.3 ± 3.3^bd
- Tumour-to-organ ratio (T/O): Blood [2]: 14.4 ± 3.6^b
- Tumour-to-organ ratio (T/O): Bone [2]: 17.1 ± 7.4^bd
- Tumour-to-organ ratio (T/O): Heart [2]: 29.5 ± 9.3^bd
- Tumour-to-organ ratio (T/O): Intestine [2]: 9.4 ± 3.7^b
- Tumour-to-organ ratio (T/O): Kidneys [2]: 0.86 ± 0.13^abd
- Tumour-to-organ ratio (T/O): Liver [2]: 21.1 ± 3.1^abd
- Tumour-to-organ ratio (T/O): Lung [2]: 11.7 ± 2.1^bd
- Tumour-to-organ ratio (T/O): Muscle [2]: 20.4 ± 1.8^b
- Tumour-to-organ ratio (T/O): Pancreas [2]: 16.7 ± 3.0^bd
- Tumour-to-organ ratio (T/O): Spleen [2]: 27.3 ± 6.3^b
- Tumour-to-organ ratio (T/O): Stomach [2]: 4.6 ± 1.1^b
- Biodistribution: A431-CCK2R tumour (receptor positive) ([2]; 1 h): 4.86 ± 1.00^d % ID/g
- Biodistribution: A431-mock tumour (receptor negative) ([2]; 1 h): 0.30 ± 0.04^b % ID/g
- Biodistribution: Blood ([2]; 1 h): 0.35 ± 0.06^ab % ID/g
- Biodistribution: Bone ([2]; 1 h): 0.31 ± 0.08^b % ID/g
- Biodistribution: Heart ([2]; 1 h): 0.17 ± 0.02^ab % ID/g
- Biodistribution: Intestine ([2]; 1 h): 0.58 ± 0.17^b % ID/g
- Biodistribution: Kidneys ([2]; 1 h): 5.57 ± 0.57^abd % ID/g
- Biodistribution: Liver ([2]; 1 h): 0.23 ± 0.02^ab % ID/g
- Biodistribution: Lung ([2]; 1 h): 0.42 ± 0.06^ab % ID/g
- Biodistribution: Muscle ([2]; 1 h): 0.20 ± 0.05^b % ID/g
- Biodistribution: Pancreas ([2]; 1 h): 0.29 ± 0.02^ab % ID/g
- Biodistribution: Spleen ([2]; 1 h): 0.18 ± 0.04^ab % ID/g
- Biodistribution: Stomach ([2]; 1 h): 1.07 ± 0.14^ab % ID/g

SMILES: CSCC[C@H](NC(=O)[C@H](Cc1c[nH]c2ccccc12)NC(=O)CNC(=O)[C@H](Cc1ccc(O)cc1)NC(=O)[C@H](C)NC(=O)[C@@H](CCC(=O)O)NC(=O)CCSC1CC(=O)N(CCC(=O)NC2CCCN(O)C(=O)C=C(C)CCOC(=O)C(NC(=O)CCN3C(=O)CC(SCCC(=O)N[C@H](CCC(=O)O)C(=O)N[C@@H](C)C(=O)N[C@@H](Cc4ccc(O)cc4)C(=O)NCC(=O)N[C@@H](Cc4c[nH]c5ccccc45)C(=O)N[C@@H](CCSC)C(=O)N[C@@H](CC(=O)O)C(=O)N[C@@H](Cc4ccccc4)C(N)=O)C3=O)CCCN(O)C(=O)C=C(C)CCOC(=O)C(NC(=O)CCN3C(=O)CC(SCCC(=O)N[C@H](CCC(=O)O)C(=O)N[C@@H](C)C(=O)N[C@@H](Cc4ccc(O)cc4)C(=O)NCC(=O)N[C@@H](Cc4c[nH]c5ccccc45)C(=O)N[C@@H](CCSC)C(=O)N[C@@H](CC(=O)O)C(=O)N[C@@H](Cc4ccccc4)C(N)=O)C3=O)CCCN(O)C(=O)C=C(C)CCOC2=O)C1=O)C(=O)N[C@@H](CC(=O)O)C(=O)N[C@@H](Cc1ccccc1)C(N)=O (some centres unmarked) [^68Ga-labelled Trimer, metal not drawn]
- Distribution coefficient logD (pH 7.4) [1]: −2.20 ± 0.07
- Biodistribution: A431-CCK2R tumour (receptor positive) ([2]; 1 h): 6.07 ± 1.56 % ID/g
- Biodistribution: A431-mock tumour (receptor negative) ([2]; 1 h): 2.17 ± 0.70^e % ID/g
- Biodistribution: Blood ([2]; 1 h): 3.70 ± 1.27 % ID/g
- Biodistribution: Bone ([2]; 1 h): 2.03 ± 0.88 % ID/g
- Biodistribution: Heart ([2]; 1 h): 1.60 ± 0.28^e % ID/g
- Biodistribution: Intestine ([2]; 1 h): 1.15 ± 0.28^e % ID/g
- Biodistribution: Kidneys ([2]; 1 h): 49.7 ± 10.1 % ID/g
- Biodistribution: Liver ([2]; 1 h): 3.71 ± 0.75 % ID/g
- Biodistribution: Lung ([2]; 1 h): 4.47 ± 1.50 % ID/g
- Biodistribution: Muscle ([2]; 1 h): 0.75 ± 0.15 % ID/g
- Biodistribution: Pancreas ([2]; 1 h): 1.37 ± 0.26^e % ID/g
- Biodistribution: Spleen ([2]; 1 h): 2.15 ± 0.32^e % ID/g
- Biodistribution: Stomach ([2]; 1 h): 3.17 ± 0.54 % ID/g
- Biodistribution: A431-CCK2R tumour (receptor positive) ([2]; 2 h): 8.73 ± 2.65^e % ID/g
- Biodistribution: A431-mock tumour (receptor negative) ([2]; 2 h): 3.18 ± 0.51 % ID/g
- Biodistribution: Blood ([2]; 2 h): 2.53 ± 0.67 % ID/g
- Biodistribution: Bone ([2]; 2 h): 2.52 ± 0.79 % ID/g
- Biodistribution: Heart ([2]; 2 h): 2.18 ± 0.31 % ID/g
- Biodistribution: Intestine ([2]; 2 h): 1.86 ± 0.33 % ID/g
- Biodistribution: Kidneys ([2]; 2 h): 59.6 ± 4.3^f % ID/g
- Biodistribution: Liver ([2]; 2 h): 4.09 ± 0.85 % ID/g
- Biodistribution: Lung ([2]; 2 h): 5.78 ± 0.92 % ID/g
- Biodistribution: Muscle ([2]; 2 h): 0.65 ± 0.14 % ID/g
- Biodistribution: Pancreas ([2]; 2 h): 1.80 ± 0.31 % ID/g
- Biodistribution: Spleen ([2]; 2 h): 2.89 ± 0.53 % ID/g
- Biodistribution: Stomach ([2]; 2 h): 3.86 ± 1.36^f % ID/g
- Biodistribution: A431-CCK2R tumour (receptor positive) ([2]; 4 h): 14.44 ± 3.40^f % ID/g
- Biodistribution: A431-mock tumour (receptor negative) ([2]; 4 h): 2.16 ± 0.54 % ID/g
- Biodistribution: Blood ([2]; 4 h): 1.76 ± 0.43 % ID/g
- Biodistribution: Bone ([2]; 4 h): 2.26 ± 0.41 % ID/g
- Biodistribution: Heart ([2]; 4 h): 1.51 ± 0.33^f % ID/g
- Biodistribution: Intestine ([2]; 4 h): 2.48 ± 0.59 % ID/g
- Biodistribution: Kidneys ([2]; 4 h): 172.1 ± 14.8 % ID/g
- Biodistribution: Liver ([2]; 4 h): 6.01 ± 2.54 % ID/g
- Biodistribution: Lung ([2]; 4 h): 3.75 ± 0.84^f % ID/g
- Biodistribution: Muscle ([2]; 4 h): 1.01 ± 0.37 % ID/g
- Biodistribution: Pancreas ([2]; 4 h): 3.10 ± 1.13 % ID/g
- Biodistribution: Spleen ([2]; 4 h): 2.77 ± 0.78 % ID/g
- Biodistribution: Stomach ([2]; 4 h): 13.6 ± 4.9 % ID/g
